Data on 5 molecules can be found in patent publication US9745556B2, “Variants of glycerol dehydrogenase having D-lactate dehydrogenase activity and uses thereof” (UNIVERSITY OF FLORIDA RESEARCH FOUNDATION, INC., priority 2011, dated 2017).

Numbering of substitutions follows the chain as printed. Names may count otherwise.

Data set [1] addresses T1, Bacillus coagulans glycerol dehydrogenase (GlyDH/GDH, native SEQ ID NO: 3) variant D121N (Heyndrickxia coagulans, UniProt A0AAN0T381, D121N).
T1 sequence (A0AAN0T381 1-367 D121N): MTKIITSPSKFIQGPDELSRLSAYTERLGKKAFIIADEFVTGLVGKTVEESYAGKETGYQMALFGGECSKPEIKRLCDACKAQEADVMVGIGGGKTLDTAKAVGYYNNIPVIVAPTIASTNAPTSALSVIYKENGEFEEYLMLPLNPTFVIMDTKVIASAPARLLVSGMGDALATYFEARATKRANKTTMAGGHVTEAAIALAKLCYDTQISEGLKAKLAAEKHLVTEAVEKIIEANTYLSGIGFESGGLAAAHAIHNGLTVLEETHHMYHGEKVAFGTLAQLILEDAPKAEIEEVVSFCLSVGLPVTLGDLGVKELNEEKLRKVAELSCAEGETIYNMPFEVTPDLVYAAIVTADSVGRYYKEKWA
The experiment in a line: Kinetic properties of mutated glycerol dehydrogenase D121N. Type of data set: biochemical. Particulars: D121N alone; compared to native enzyme; in words. On the procedure:
(§1) Cultures were grown (LB-glucose medium in pH-controlled fermenters) to mid-exponential phase, harvested, and used for enzyme assays as previously described (23). Glycerol dehydrogenase from strain QZ19 was purified using differential ammonium sulfate precipitation followed by anion-exchange and hydrophobic interaction chromatography. GlyDH and GlyDH* were also purified as N-terminal His-tagged enzymes (33). GlyDH and LDH were assayed using standard methods (34, 35).
(§2) During the development of a D-lactate producing B. coagulans derivative (strain QZ19), a glycerol dehydrogenase (GDH) with two mutations (D121N and F245S) evolved to catalyze the reduction of pyruvate to D-lactate (Table 1 and FIG. 7). The first derivative that produced a significant D-lactate titer, strain QZ15, carried a single mutation that changed the amino acid phenylalanine at position 245 to serine. As strain QZ15 was further selected for higher lactate productivity, the GDH protein acquired a second mutation in amino acid position 121 (D121N) (FIG. 15). Combination of these two mutations led strain QZ19 to produce D-lactic acid at a titer close to 100 g/L in 48 hours at pH 5.0 and 50° C. in pH-controlled fermentations. In order to evaluate the role of each of these two mutations in the catalysis of pyruvate reduction to D-lactate, GDH/LDH enzyme with either of the two substitutions (D121N or F245S) and the protein with both changes were expressed in E. coli, purified, and their biochemical properties were determined.

The target in data set [2] is Bacillus coagulans glycerol dehydrogenase (GlyDH/GDH), native, strain P4-102B, SEQ ID NO: 3 (Heyndrickxia coagulans, UniProt A0AAN0T381). It is filed as biochemical. Particulars: native enzyme. On the procedure: as §1
Sequence of Bacillus coagulans glycerol dehydrogenase (GlyDH/GDH), native, strain P4-102B, SEQ ID NO: 3 (A0AAN0T381 entry or part of it): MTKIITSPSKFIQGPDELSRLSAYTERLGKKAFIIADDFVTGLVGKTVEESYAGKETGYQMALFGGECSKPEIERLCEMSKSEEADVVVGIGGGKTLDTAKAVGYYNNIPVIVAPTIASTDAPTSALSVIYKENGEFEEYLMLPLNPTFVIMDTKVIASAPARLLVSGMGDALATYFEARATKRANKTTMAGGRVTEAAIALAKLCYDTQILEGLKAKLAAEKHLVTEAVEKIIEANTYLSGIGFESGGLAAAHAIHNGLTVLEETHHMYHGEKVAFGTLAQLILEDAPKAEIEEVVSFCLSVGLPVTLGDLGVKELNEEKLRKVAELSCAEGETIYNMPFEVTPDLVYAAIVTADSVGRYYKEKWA
as §2, with “Combination of these two mutations led strain QZ19 to produce D-lactic acid at a titer close to 100 g/L in 48 hours at pH 5.0 and 50° C. in pH-controlled fermentations.” left out

For data set [3], the system named is OCC(O)CO. The data set can be described thus: Kinetic properties of mutated glycerol dehydrogenase D121N. It is filed as biochemical, Bacillus coagulans. Particulars: other: D121N, 55° C., pH 5.0. As to the method: as §1, §2
The test system of data set [4] is C[C@@H](O)C(=O)O. The data set is described as above. Type of data set: biochemical, Bacillus coagulans. Particulars: other: D121N, 55° C., pH 5.0. As to the method:
as §1, §2

Data set [5] relates to CC(=O)C(=O)O. Described as above. Type of data set: biochemical, Bacillus coagulans. Particulars: other: D121N, 55° C., pH 5.0. As to the method:
as §1, §2

In data set [6] the test system is OCC(O)CO. The experiment in a line: Kinetic properties of mutated glycerol dehydrogenase F245S. It is filed as biochemical, Bacillus coagulans. Particulars: other: F245S, 55° C., glycerol oxidation, pyruvate reduction or lactate oxidation, pH 5.0. On the procedure:
as §1, §2

Data set [7] concerns CC(=O)C(=O)O. The data set is described as above. Type of data set: biochemical, Bacillus coagulans. Particulars: other: F245S, 55° C., pH 5.0. On the procedure:
as §1, §2

Substrate in data set [8]: OCC(O)CO
The experiment in a line: purified protein, by the assay type. Particulars: other: column head, D121N; 55° C.; pH 5.0; 55.0 °C.

Substrate in data set [9]: CC(=O)C(=O)O
The experiment in a line: purified protein, by the assay type. Particulars: other: enzyme with both changes; pH 5.0; 50.0 °C.

Substrate in data set [10]: NC(=O)C1=CN([C@@H]2O[C@H](COP(=O)(O)OP(=O)(O)OC[C@H]3O[C@@H](n4cnc5c(N)ncnc54)[C@H](O)[C@@H]3O)[C@@H](O)[C@H]2O)C=CC1
The data set can be described thus: purified protein, by the assay type. Particulars: other: Native, 55° C., glycerol oxidation, pyruvate reduction or lactate oxidation, pH 5.0.

Substrate in data set [11]: OCC(O)CO
The experiment in a line: purified protein, by the assay type. Type of data set: biochemical, Bacillus coagulans. Particulars: other: Native, 55° C., glycerol oxidation, pyruvate reduction or lactate oxidation, pH 5.0. As to the method:
as §1
as §2, with “Combination of these two mutations led strain QZ19 to produce D-lactic acid at a titer close to 100 g/L in 48 hours at pH 5.0 and 50° C. in pH-controlled fermentations.” left out

On to `OCC(O)CO` [Glycerol], for which, in data set [1], the “change in apparent Km for glycerol” value was “slight increase”. Also, the “efficiency at oxidizing glycerol with NAD^+ relative to reducing pyruvate using NADH” value in [2] is given as “about 1,000 times”.

On to “Bacillus coagulans glycerol dehydrogenase (GlyDH/GDH, native SEQ ID NO: 3) variant D121N (Heyndrickxia coagulans; D121N)”, for which the kcat was 13.2 s⁻¹ in [3], 1.9 s⁻¹ in [4] and 2.0 s⁻¹ in data set [5]. Further, the kcat/Km in data set [3] amounted to 100 M⁻¹ s⁻¹; in [4] it was 8 M⁻¹ s⁻¹; in data set [5] it was 3 M⁻¹ s⁻¹.

In the case of “Bacillus coagulans glycerol dehydrogenase (GlyDH/GDH, native SEQ ID NO: 3) variant F245S (Heyndrickxia coagulans; F245S)”, the kcat in [6] turned out to be 62.5 s⁻¹; in data set [7] it was 19.5 s⁻¹. The figures for the kcat/Km in data set [6] and in [7] were 800 M⁻¹ s⁻¹ and 80 M⁻¹ s⁻¹, respectively.

B1: Bacillus coagulans glycerol dehydrogenase (GlyDH/GDH, native SEQ ID NO: 3) variant F245S, D121N (GlyDH*, strain QZ19, SEQ ID NO: 1) (Heyndrickxia coagulans; … (protein)
chain: MTKIITSPSKFIQGPDELSRLSAYTERLGKKAFIIADDFVTGLVGKTVEESYAGKETGYQMALFGGECSKPEIERLCEMSKSEEADVVVGIGGGKTLDTAKAVGYYNNIPVIVAPTIASTNAPTSALSVIYKENGEFEEYLMLPLNPTFVIMDTKVIASAPARLLVSGMGDALATYFEARATKRANKTTMAGGRVTEAAIALAKLCYDTQILEGLKAKLAAEKHLVTEAVEKIIEANTYLSGIGSESGGLAAAHAIHNGLTVLEETHHMYHGEKVAFGTLAQLILEDAPKAEIEEVVSFCLSVGLPVTLGDLGVKELNEEKLRKVAELSCAEGETIYNMPFEVTPDLVYAAIVTADSVGRYYKEKWA
For B1, in data set [8], the kcat came to 16.7 s⁻¹ and the kcat/Km amounted to 100 M⁻¹ s⁻¹. Also, the Km in data set [9] amounted to 51000 µM.

B2: Bacillus coagulans glycerol dehydrogenase (GlyDH/GDH), native, strain P4-102B, SEQ ID NO: 3 (Heyndrickxia coagulans) (protein)
chain: B1 chain with N121D, S245F
Consider B2, for which the Michaelis constant (Km) in data set [10] stood at 400 µM. In addition, in data set [11], the kcat came to 28.0 s⁻¹ and the kcat/Km is 2400 M⁻¹ s⁻¹.
